Test results taken from patent US20170145113A1 (Genentech, published 2017).
Each block holds one binder with its values, some of them ahead of it.

Tests used:
[1] = biological target: T1, His-tagged human HtrA1 protease domain (human, UniProt Q92743 161-367); assay: SPR (BIACORE T100), single-cycle kinetics; biotinylated HtrA1-PD-His on streptavidin, Fab injected
T1 construct: His-tagged protease domain; also called huHtrA1-PD-His; huHtrA1-PD
Excerpt: (§1) To determine the binding affinity of anti-HtrA1 Fabs by single-cycle kinetics, (SPR) measurement with a BIACORE™ T100 instrument was used. Briefly, a series S sensor chip CM5 was activated with 1-ethyl-3-(3-dimethylamino-propyl)carbodiimide hydrochloride (EDC) and N-hydroxysuccinimide (NHS) reagents according to the supplier's instructions, and streptavidin (Pierce) was coupled to achieve approximately 2500 response units (RU), followed by blocking un-reacted groups with 1 M ethanolamine.
(§2) For kinetics measurements, biotinylated human or murine HtrA1-PD-His was first injected at 10 μl/min flow rate to capture approximately 150 RU at 3 different flow cells (FC), except for FC1 (which served as a reference), and then 5-fold serial dilutions of anti-HtrA1 Fab in HBS-P buffer (0.01M HEPES pH 7.4, 0.15 M NaCl, 0.005% surfactant P20) from low (0.48 nM) to high (300 nM) were injected (flow rate: 30 μl/min) one after the other in the same cycle with no regeneration between injections. The sensorgram was recorded and subject to reference and buffer subtraction before evaluating by BIACORE™ T100 Evaluation Software (version 2.0). Association rates (kₒₙ) and dissociation rates (koff) were calculated using a simple one-to-one Langmuir binding model. The equilibrium dissociation constant (KD) was calculated as the ratio koff/kₒₙ.

[2] = biological target: T2, His-tagged recombinant murine HtrA1 protease domain (murine, UniProt Q9R118 156-367); assay: as above
T2 construct: His-tagged protease domain; also called muHtrA1-PD-His; muHtrA1-PD
Excerpt: as §1, §2

[3] = biological target: T1, His-tagged human HtrA1 protease domain; assay: SPR (BIACORE), Fab
[4] = biological target: T1, His-tagged human HtrA1 protease domain; assay: BIACORE SPR, single cycle kinetic analysis; ligand streptavidin-captured biotin human HtrA1, analyte Fab
Excerpt: as §1, §2

[5] = biological target: T2, His-tagged recombinant murine HtrA1 …; assay: BIACORE SPR, single cycle kinetic analysis; ligand streptavidin-captured biotin murine HtrA1, analyte Fab
Excerpt: as §1, §2

[6] = biological target: T3, murine HtrA4 protease domain (murine, UniProt A2RT60 160-371, limits assumed); assay: ELISA, hybridoma clone
T3 construct: domain: PD (protease domain); also called muHtrA4-PD; murine HtrA4-PD
T3 sequence (looked up): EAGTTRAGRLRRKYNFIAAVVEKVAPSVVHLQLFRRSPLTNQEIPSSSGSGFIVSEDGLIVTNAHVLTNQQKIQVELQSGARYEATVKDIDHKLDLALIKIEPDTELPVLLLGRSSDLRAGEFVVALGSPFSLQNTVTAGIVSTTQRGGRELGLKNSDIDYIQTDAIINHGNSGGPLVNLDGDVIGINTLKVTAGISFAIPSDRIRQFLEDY

[7] = biological target: purified full-length murine HtrA1 (murine, UniProt Q9R118 23-480); assay: cell-based or functional assay
[8] = biological target: purified full-length human HtrA1 (human, UniProt Q92743 23-480); assay: cell-based or functional assay
[9] = biological target: T1, His-tagged human HtrA1 protease domain; assay: SPR (BIACORE), Fab; remark: listed apart in the source
Excerpt: (§3) To address W91 oxidation in HVR-L3, 2 variants (LC-W91Y and LC-W91L) were generated and produced as Fabs for BIACORE™ SPR binding analysis.
as §1, §2

[10] = biological target: T2, His-tagged recombinant murine HtrA1 …; assay: SPR (BIACORE), Fab
Excerpt: as §3, §1, §2

[11] = biological target: T1, His-tagged human HtrA1 protease domain; assay: BIACORE T200 SPR; Fab analyte over huHtrA1-PD-His captured by anti-His antibody
Protocol: (§4) To determine the binding affinity of selected Fab variants for HtrA1, SPR measurement with a BIACORE™ T200 instrument was performed. Briefly, a series S sensor chip CM5 was activated with 1-EDC and NHS reagents according to the supplier's instructions, and anti-His antibody was coupled to achieve 200-300 response units (RU), then following by blocking un-reacted groups with 1 M ethanolamine. For kinetics measurements, approximately 5 nM of huHtrA1-PD-His was first injected at 10 μl/min flow rate to capture approximately 100 RU at 2 different flow cells (FC), except for FC1 (which served as a reference). Next, 5-fold serial dilutions of Fab in HBS-P buffer (0.01M HEPES pH 7.4, 0.15M NaCl, 0.005% surfactant P20) from low (0.8 nM) to high (50 nM) were injected (flow rate: 30 μl/min). The binding responses on HtrA1 were corrected by subtracting of RU from a blank flow cell. The sensorgram was recorded and subject to reference and buffer subtraction before evaluating by BIACORE® T200 Evaluation Software (version 2.0). Association rates (kₒₙ) and dissociation rates (koff) were calculated using a simple one-to-one Langmuir binding model. The equilibrium dissociation constant (KD) was calculated as the ratio of koff/kₒₙ.

[12] = biological target: T1, His-tagged human HtrA1 protease domain; assay: cell-based or functional assay
[13] = biological target: T1, His-tagged human HtrA1 protease domain; assay: BIACORE SPR, single-cycle kinetics; Fab analyte over captured human HtrA1
[14] = biological target: T1, His-tagged human HtrA1 protease domain; assay: cell-based or functional assay; remark: listed apart in the source
[15] = biological target: T1, His-tagged human HtrA1 protease domain; assay: SPR (BIACORE T200), huHtrA1-PD-His captured by anti-His, Fab injected
Protocol: as §4

[16] = biological target: T1, His-tagged human HtrA1 protease domain; assay: BIACORE SPR analysis, Fab format
Protocol: as §4

[17] = biological target: T1, His-tagged human HtrA1 protease domain; assay: BIACORE SPR, Fab analyte, Human HtrA1-PD (N=2)
[18] = biological target: T1, His-tagged human HtrA1 protease domain; assay: BIACORE SPR, single-cycle kinetics; Fab analyte over captured human HtrA1; remark: listed apart in the source
[19] = biological target: T1, His-tagged human HtrA1 protease domain; assay: SPR (BIACORE T200), huHtrA1-PD-His captured by anti-His, Fab injected; remark: listed apart in the source
Protocol: These combination mutants included both a variant light chain and a variant heavy chain. BIACORE™ kinetic analysis was performed (as described below in Section C) using the combination mutants.
as §4

[20] = biological target: T4, murine HtrA3 protease domain (murine, UniProt Q9D236 135-350, limits assumed); assay: ELISA, hybridoma clone
T4 construct: domain: PD (protease domain); also called muHtrA3-PD; murine HtrA3-PD
T4 sequence (looked up): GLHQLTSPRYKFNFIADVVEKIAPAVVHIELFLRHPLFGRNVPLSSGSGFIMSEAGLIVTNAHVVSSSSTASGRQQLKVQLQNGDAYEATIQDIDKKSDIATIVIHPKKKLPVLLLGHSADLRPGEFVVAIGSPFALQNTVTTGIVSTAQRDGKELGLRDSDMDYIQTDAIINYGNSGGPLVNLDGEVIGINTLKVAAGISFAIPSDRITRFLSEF

T1 sequence (Q92743 other isoform, or with tags, fused parts or gaps limits assumed): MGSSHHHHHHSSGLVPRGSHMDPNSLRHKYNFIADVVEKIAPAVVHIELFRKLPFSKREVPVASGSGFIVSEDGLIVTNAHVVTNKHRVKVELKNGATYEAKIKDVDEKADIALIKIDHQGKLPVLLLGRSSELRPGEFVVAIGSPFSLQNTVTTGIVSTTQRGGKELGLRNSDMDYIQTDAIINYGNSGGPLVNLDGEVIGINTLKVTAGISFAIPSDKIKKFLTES
Sequence of purified full-length human HtrA1 (Q92743 23-480): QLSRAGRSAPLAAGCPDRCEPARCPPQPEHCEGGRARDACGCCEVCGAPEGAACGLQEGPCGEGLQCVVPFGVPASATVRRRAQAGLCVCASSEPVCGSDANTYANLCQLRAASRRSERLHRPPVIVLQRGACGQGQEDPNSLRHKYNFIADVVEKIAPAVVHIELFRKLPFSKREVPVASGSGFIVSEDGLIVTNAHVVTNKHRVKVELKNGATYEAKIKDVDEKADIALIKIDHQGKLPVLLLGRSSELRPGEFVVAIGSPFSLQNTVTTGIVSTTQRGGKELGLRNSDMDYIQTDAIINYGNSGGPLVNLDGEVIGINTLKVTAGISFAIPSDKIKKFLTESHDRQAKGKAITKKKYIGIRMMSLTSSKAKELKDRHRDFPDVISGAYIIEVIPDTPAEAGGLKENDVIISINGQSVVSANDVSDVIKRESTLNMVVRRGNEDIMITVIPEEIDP

- Kd [1]: 10.7 nM
- koff [1]: 0.0016 s⁻¹
- kon [1]: 150000 M⁻¹ s⁻¹
- Kd [2]: 7.6 nM
- koff [2]: 0.00091 s⁻¹
- kon [2]: 120000 M⁻¹ s⁻¹
- fold improvement of KD against m19B12 [3]: ~2 fold
- Kd [4]: 24 nM
- koff [4]: 0.00345 s⁻¹
- kon [4]: 144000 M⁻¹ s⁻¹
- Kd [5]: 6.65 nM
- koff [5]: 0.00134 s⁻¹
- kon [5]: 201000 M⁻¹ s⁻¹
B1: h19B12.v1 Fab (Fab, V domains shown)
VH: EVQLVESGGGLVQPGGSLRLSCAASGFTFSSYIMSWVRQAPGKGLEWVAYISNGGGTTYYSDTIKGRFTISRDNSKNTLYLQMNSLRAEDTAVYYCARQNFRSDGSSMDYWGQGTLVTVSS
VL: DIVMTQSPDSLAVSLGERATINCRASESVDSYGKSFMHWYQQKPGQPPKLLIYLASKLESGVPDRFSGSGSGTDFTLTISSLQAEDVAVYYCQQNNEDPYTFGQGTKVEIK
notes: Tested in Fab format

- binding result [6]: no binding
- IC50, FRET-based blocking assay (H2-Opt cleavage) [7]: 1 nM
- IC50, FRET blocking assay, recombinant antibody from 293 cells [8]: ~1.2 nM
- IC50, FRET-based blocking assay (H2-Opt cleavage) [8]: 1.4 nM
B2: anti-HtrA1 hybridoma antibody clone 19B12 (antibody, V domains shown)
VH: EVKLVESGGGLVEPGGSLKLACVASGFTFSSYIMSWVRQTPEKRLEWVAYISNGGGTTYYSDTIKGRFTISRDNAKNTLYLQMSTLKSEDTAIYFCARQNFRSDGSSMDYWGQGTAVTVSS
VL: NIVVTQSPASLAVSLGQRATISCRASESVDSYGKSFMHWYQQKPGQPPKLLIYLASKLESGVPARFSGSGSRTDFTLTIDPVEADDAATYYCQQNNEDPYTFGGGTKLEIK
notes: Murine mIgG2a, from hybridoma or recombinant from 293 cells; also called m19B12

- Kd [9]: 0.2 nM
- koff [9]: 0.00012 s⁻¹
- kon [9]: 690000 M⁻¹ s⁻¹
- Kd [10]: 0.4 nM
- koff [10]: 0.00015 s⁻¹
- kon [10]: 360000 M⁻¹ s⁻¹
- Kd [11]: 0.219 nM
- IC50, FRET-based H2-Opt blocking assay [12]: ~0.39 nM
- Kd [13]: 0.33 nM
- koff [13]: 0.00014 s⁻¹
- kon [13]: 430000 M⁻¹ s⁻¹
- IC50 FRET (H2-Opt substrate cleavage) [14]: 0.44 nM
- IC90 FRET (H2-Opt substrate cleavage) [14]: 1.87 nM
- Max inhibition (FRET H2-Opt assay) [14]: 91
- Kd [15]: 0.22 nM
- koff [15]: 0.000158 s⁻¹
- kon [15]: 722000 M⁻¹ s⁻¹
- Kd [16]: 0.219 nM
- Kd [17]: 0.4 nM
- koff [17]: 0.00021 s⁻¹
- kon [17]: 490000 M⁻¹ s⁻¹
- Kd [18]: 0.25 nM
- koff [18]: 0.00016 s⁻¹
- kon [18]: 630000 M⁻¹ s⁻¹
- Kd [19]: 0.22 nM
- koff [19]: 0.000158 s⁻¹
- kon [19]: 722000 M⁻¹ s⁻¹
B3: h15H6.v2 Fab (Fab, V domains shown)
VH: EVQLVQSGAEVKKPGASVKVSCKASGYTFTDSEMHWVRQAPGQGLEWIGGVDPETDGAAYNQKFKGRATITRDTSTSTAYLELSSLRSEDTAVYYCTRGYDYDYALDYWGQGTLVTVSS
VL: DIQMTQSPSSLSASVGDRVTITCRASSSVNFIHWYQQKPGKAPKPLISATSNLASGVPSRFSGSGSGTDFTLTISSLQPEDFATYYCQQWSSNPWTFGQGTKVEIK
notes: Tested as Fab; also called parent; parental Fab

- binding result [6]: no binding
- binding result [20]: no binding
- IC50, FRET-based blocking assay (H2-Opt cleavage) [7]: 1.1 nM
- fold improvement of IC50 against YW505.94 [7]: ~5 fold
- IC50, FRET blocking assay, recombinant antibody from 293 cells [8]: ~0.7 nM
- IC50, FRET-based blocking assay (H2-Opt cleavage) [8]: 0.7 nM
- fold improvement of IC50 against YW505.94 [8]: ~2 fold
B4: anti-HtrA1 hybridoma antibody clone 15H6 (antibody, V domains shown)
VH: QVQLQQSGAELVRPGASVTLSCKASGYTFTDSEMHWVKQTPVHGLEWIGGVDPETDGAAYNQKFKGKATLTADKSSSTAYMELRSLTSEDSAVYYCTRGYDYDYALDYWGQGTSVTVSS
VL: QIVLSQSPAILSASPGEKVTMTCRASSSVNFIHWYQQKPGSSPKPWISATSNLASGVPPRFSGSGSGTSYSLTISRVEAEDAATYYCQQWSSNPWTFGGGTKLEIK
notes: Murine mIgG2a, from hybridoma or recombinant from 293 cells; also called m15H6
